For test [1], the target named is T1, recombinant protein IL-34 (Peprotech Ref 200-34, whole protein without signal peptide with His tag on … (UniProt Q6ZMJ4 21-242)).
T1 construct: mature; also called IL-34 protein; recombinant IL-34; not shown: C-terminal His tag
T1 sequence (looked up): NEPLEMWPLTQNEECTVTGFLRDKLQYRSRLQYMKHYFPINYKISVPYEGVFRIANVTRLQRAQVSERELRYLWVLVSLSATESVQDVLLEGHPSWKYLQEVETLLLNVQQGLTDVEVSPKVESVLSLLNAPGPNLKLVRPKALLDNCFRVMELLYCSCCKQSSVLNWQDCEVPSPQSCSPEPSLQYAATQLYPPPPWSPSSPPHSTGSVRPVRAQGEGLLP
Kind of test: SPR (BIAcore T100), antibody captured on immobilised polyclonal anti-mouse antibody, IL-34 as analyte, 25 °C, 1:1 model. The method, then: (§1) Theses interaction were performed at 25° C., in HBS-P+ buffer (HEPES 10 mM pH 7.4; NaCl 150 mM; P20 0.05%) by administrating different concentrations of IL-34 obtained by serial dilution of the protein IL-34 (Peprotech Ref 200-34, whole protein without signal peptide with His tag on C-terminal).
(§2) The regeneration is performed by administering 10 mM of Glycine-HCl buffer at pH=1.7 allowing dissociating the antibody IL-34 from immobilized polyclonal antibody.
The obtained results are shown by sensograms of FIG. 2.
For orientation: Surface plasmon resonance follows binding to a sensor surface in real time, without labels.

The target in test [2] is T1, recombinant protein IL-34 (Peprotech …). Briefly: SPR (BIAcore T100), antibody captured, IL-34 as analyte. The method, then: as §1, §2
For test [3], the target named is T2, M-CSF receptor (R&D-Systems ref: 329-MR) (UniProt P07333 20-512).
T2 construct: Bought soluble receptor, immobilised covalently on a CM5 chip; also called CSF-1 receptor; receptor M-CSF-R
T2 sequence (P07333 20-512 limits assumed): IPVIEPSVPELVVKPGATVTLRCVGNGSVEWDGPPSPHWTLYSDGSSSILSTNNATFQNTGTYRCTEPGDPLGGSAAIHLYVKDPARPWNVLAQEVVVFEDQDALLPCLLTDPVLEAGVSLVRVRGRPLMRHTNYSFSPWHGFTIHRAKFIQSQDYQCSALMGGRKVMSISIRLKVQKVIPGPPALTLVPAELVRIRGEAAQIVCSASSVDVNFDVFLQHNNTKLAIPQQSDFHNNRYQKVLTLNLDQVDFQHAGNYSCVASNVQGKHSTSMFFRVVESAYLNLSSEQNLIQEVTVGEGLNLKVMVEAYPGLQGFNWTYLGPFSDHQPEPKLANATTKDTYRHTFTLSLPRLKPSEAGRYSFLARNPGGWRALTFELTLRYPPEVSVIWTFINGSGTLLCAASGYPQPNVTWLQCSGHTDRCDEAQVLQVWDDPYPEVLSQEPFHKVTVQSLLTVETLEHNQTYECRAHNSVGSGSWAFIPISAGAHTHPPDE
Kind of test: SPR (BIAcore T100), antibody injected over immobilised M-CSF-R. As to the method: The measurement of surface plasmon resonance (SPR) was performed on BIACore T100. The microarrays CM5 (CM-dextran, 1-ethyl-3-(3-[…]) carbodiimide hydrochloride (EDC) and N-Hydroxysuccinimide (NHS) have been purchased by GE Healthcare BIAcore and used according to manufacture instructions.
The ligand, M-CSF receptor (R&D-Systems ref: 329-MR) was immobilized covalently on the CM5 microarray surface. Capture level of […] is comprised between 600 and 800 RU.
Theses interaction were performed at 25° C., in HBS-P+ buffer (HEPES 10 mM pH 7.4; NaCl 150 mM; P20 0.05%).

B1: murine anti-IL-34 antibody (clone BT34) (antibody, V domains shown)
VH: EVQLQQFGAELVKPGASVKISCKASGYTFTDYNMDWVKQSHGKSLEWIGDINPNYESTTYNQKFKGKATLTVDRSSSTAYMELRSLTSEDTAVYYCLRSGGDYWGQGTTLTVSS
VL: DVLMTQTPLSLPVGLGDQASISCRSSQTIVHSNGKTYLEWYLQKPGQSPKLLIYKVSNRFSGVPDRFSGSGSGTDFTLKISRVEAEDLGVYYCFQGSHVPLTFGAGTKLELK
notes: Murine monoclonal antibody from a hybridoma; No single sentence ties these numbers to BT34; also called anti-IL-34 antibody BT34; anti-IL-34 BT34 clone
Usually Kd stands for the equilibrium constant for the complex coming apart. One may read the koff as a measure of how fast the partners let go of each other. As usually defined, the kon is the second-order rate constant of association. Regarding B1, in test [1], the Kd stood at 9.4 pM, the koff amounted to 2.9e-07 s⁻¹ and the kon is 31000 M⁻¹ s⁻¹. For the same molecule, the koff in test [2] is less than 1e-06 s⁻¹. Besides, in test [3], the binding result was “no binding (tested: 10 nM)”.

For the origin of these results see patent US20170342148A1 (UNIVERSITE DE NANTES, published 2017).
